For one assay, the target named is T1, mouse PAI-1 (mouse, UniProt P22777 23-402).
T1 construct: also called recombinant mouse PAI-1
T1 sequence (looked up): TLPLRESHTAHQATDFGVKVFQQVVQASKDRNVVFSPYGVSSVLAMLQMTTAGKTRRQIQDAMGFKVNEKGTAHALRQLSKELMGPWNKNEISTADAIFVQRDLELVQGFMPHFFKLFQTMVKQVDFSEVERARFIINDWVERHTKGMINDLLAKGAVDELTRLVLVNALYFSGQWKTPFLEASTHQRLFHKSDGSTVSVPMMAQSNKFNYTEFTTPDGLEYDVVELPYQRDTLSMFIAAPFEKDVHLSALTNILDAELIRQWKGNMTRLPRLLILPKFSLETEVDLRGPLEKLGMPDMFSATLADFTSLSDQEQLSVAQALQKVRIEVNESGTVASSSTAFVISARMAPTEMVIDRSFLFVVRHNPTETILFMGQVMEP
Put plainly: sandwich ELISA: plate coated with recombinant mouse PAI-1, diabody, mouse TAFI, HRP-conjugated MA-TCK32G12. Here is the method:
(§1) Db-TCK26D6x33H1F7 (0.8 mg/kg) was administered IV via tail vein injection in mice (n=6). Prior to the experiment, blood was withdrawn on 0.38% trisodium citrate (=pre-sample). Post injection, blood was withdrawn on 0.38% trisodium citrate at several time points: 5 min, 45 min, 3 hours, 6 hours and 24 hours. Diabody concentrations in corresponding plasma samples were determined by an ELISA based on the simultaneous binding of the diabody towards PAI-1 and TAFI. Wells of polystyrene microtiter plates were incubated with 200 μl recombinant mouse PAI-1 in PBS (pH 7.4; 4 μg/ml) for 72 hours at 4° C., emptied and treated for two hours with PBS supplemented with 1% (m/v) bovine serum albumin. After washing, serial two-fold dilutions (180 μl) of plasma samples were added to the wells and incubated overnight at 4° C. Then, the wells were washed and incubated with 170 μl mouse TAFI (0.1 μg/ml) for 2 hours at room temperature. Subsequently, plates were washed and 160 μl HRP-conjugated MA-TCK32G12 (directed against TAFI) was added to the wells followed by incubation for 2 hours at room temperature. All washing steps were performed with PBS containing Tween 80 (0.002%) and dilutions were made in PBS containing Tween 80 (0.002%) and bovine serum albumin (0.1% m/v). […] The absorbance was measured at 492 nm. […]
(ELISA stands for enzyme-linked immunosorbent assay.)

The target in another assay is T2, mouse TAFI (mouse, UniProt Q9JHH6 22-422).
T2 construct: also called Carboxypeptidase B2 (CPB2)
T2 sequence (looked up): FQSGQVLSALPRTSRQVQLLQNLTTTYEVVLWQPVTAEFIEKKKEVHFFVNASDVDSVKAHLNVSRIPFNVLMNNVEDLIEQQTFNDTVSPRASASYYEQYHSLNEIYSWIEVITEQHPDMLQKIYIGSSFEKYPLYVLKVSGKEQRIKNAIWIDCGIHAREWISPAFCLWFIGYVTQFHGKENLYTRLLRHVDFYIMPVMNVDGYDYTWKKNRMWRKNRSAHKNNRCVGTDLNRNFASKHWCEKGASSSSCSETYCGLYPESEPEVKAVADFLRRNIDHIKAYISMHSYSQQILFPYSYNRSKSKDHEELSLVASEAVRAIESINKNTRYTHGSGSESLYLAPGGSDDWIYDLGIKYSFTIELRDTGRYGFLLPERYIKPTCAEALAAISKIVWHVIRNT
The assay is described as above. Here is the method:
as §1

Consider 1 molecule from patent US20160347859A1 (KATHOLIEKE UNIVERSITEIT LEUVEN, published 2016).

B1: Db-TCK26D6x33H1F7 (bispecific antibody)
chain 1: QVQLQQSGPELVKPGASVKISCKASGYTFTDNNMDWAKQSHGKSLEWIGSIYSNNGGTIYNQKFKGKATLNVDTSSSTAYMELRSLTSEDTAVYYCAREMSDGPYWFFDVWGTGTTVTVSGAKTTPKLGGDIQMTQSPSSLSASLGDRVTISCRASQDISNFLDWYQQKPDGTVKLLIYYTSRLHSGVPSRFSGSGSGTDYSLTISKLEQEDIATYFCQQGNTFPPTFGGGTKLEIKRADAAAAGSEQKLISEEDLNSHHHHHH
chain 2: QVQLQQSGAEVVKPGASVKLACTASGFNIKDTYIHWVKQGPEQGLEWIGRIDPANGNTKYDSKFQDKATITADTSSNTAYLHLSSLTSEDTAVYYCVRGDYDYVYFDYWGQGTTVTVSSAKTTPKLGGDIQMTQSPASLSVSVGETVTITCRASENIFRNLVWYQQKQGKSPQLLVYSATNLVDGVPSRFSGSGSGTQYSLKINSLQSEDFGSYYCQHFWGTPRTFGGGTKLEIKRADTAPTGSEQKLISEEDLNSHHHHHH
notes: also called diabody
With B1, the binding result in the assay with mouse PAI-1 and with mouse TAFI was “binds” throughout.
